Data set [1] has as its system ParA2-GFP (Vibrio cholerae). The data set is described as follows: EMSA. Background: In EMSA bound probe runs differently from free probe, usually more slowly.
Data set [2] relates to ParA2 K124Q (Vibrio cholerae). The experiment in a line: EMSA.
For data set [3], the system named is ParA2 K124E (Vibrio cholerae). The experiment in a line: EMSA.
The subject of data set [4] is ParA2 K124R (Vibrio cholerae). The experiment in a line: EMSA.
Data set [5] relates to ParA2 (Vibrio cholerae). The data set is described as follows: EMSA.
The target of data set [6] is ParA2 ATPase (wild type), Vibrio cholerae chromosome 2 (Vibrio cholerae). The data set is described as follows: SEC-MALS; 40 uM ParA2 alone or pre-incubated with ADP or ATP; Superdex 200 10/300 GL; 50 mM Tris-HCl pH 7.5, 100 mM NaCl, 5.0 mM MgCl2, 0.1 mM EDTA, 1.0 mM DTT, 1.0 mM NaN3; monomer to dimer. In general terms: SEC sorts molecules by how far they enter the pores of the column.

Data set [7] shares this target.

Usually Kd stands for the free concentration of one partner at which half of the binding sites on the other are occupied at equilibrium, for simple one-to-one binding. A higher Kd goes with weaker binding. Take “CGAGGTCGACGGTATCGATAAGCTTGATATCGAATTCCTGCAGCCCGGGGGATCCACTAGTTCTAGAGC (double strand) [Cy3-69 bp nsDNA]”: the dissociation constant (Kd) in data set [1] turned out to be 40 nM; in data set [2], 138 nM; in data set [3] it was 452 nM; in data set [4], 47.1 nM; in data set [5], 1000 nM.
The term stoichiometry N denotes the number of molecules, sites or subunits per partner or assembly. In data set [6], “ParA2 ATPase (wild type), Vibrio cholerae chromosome 2 (enzyme)” registered a stoichiometry N of 2.
Regarding “ParB2, Vibrio cholerae chromosome 2 (natural protein)”, in data set [7], the pre-steady state ATP hydrolysis rate of ParA2 (1.5 uM), stimulation by ParB2 at equimolar concentration was found to be 3 fold; the pre-steady state ATP hydrolysis rate of ParA2 (1.5 uM), stimulation in the presence of both DNA and ParB2 came out at 8 fold.

Source of the values: PMC10287910.
